Here are results for four sequences from patent EP1073891B1, “METHOD OF PREDICTING RECEPTOR MODULATING ACTIVITY” (Duke University, priority 1998, dated 1999).

Type in all cases: cell-based
One experiment concerns the target T1, ERα-VP16 (Homo sapiens, UniProt P03372).
T1 construct: expressed in transfected cells; host or cells: HepG2
T1 sequence (P03372 1-595): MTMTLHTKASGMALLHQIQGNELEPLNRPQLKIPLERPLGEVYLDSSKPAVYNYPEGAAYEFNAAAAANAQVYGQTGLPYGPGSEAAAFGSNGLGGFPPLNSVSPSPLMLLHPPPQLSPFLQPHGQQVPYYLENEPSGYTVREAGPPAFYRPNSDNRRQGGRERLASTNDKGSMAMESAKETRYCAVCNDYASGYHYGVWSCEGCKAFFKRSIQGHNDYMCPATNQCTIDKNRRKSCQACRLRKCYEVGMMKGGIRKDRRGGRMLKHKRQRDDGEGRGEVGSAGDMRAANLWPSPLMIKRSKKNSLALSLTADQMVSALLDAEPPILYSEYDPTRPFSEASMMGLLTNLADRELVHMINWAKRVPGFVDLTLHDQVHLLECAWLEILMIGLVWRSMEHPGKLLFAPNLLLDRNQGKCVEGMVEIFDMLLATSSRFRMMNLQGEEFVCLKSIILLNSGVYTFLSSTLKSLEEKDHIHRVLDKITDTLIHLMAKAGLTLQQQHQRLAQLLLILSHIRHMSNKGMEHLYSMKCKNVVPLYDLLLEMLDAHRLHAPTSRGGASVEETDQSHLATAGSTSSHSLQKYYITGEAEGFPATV
The experiment is described as follows: Mammalian two-hybrid in HepG2 cells, Gal4-peptide fusions, luciferase reporter (Example 4.1). Particulars: Gal4-peptide fusion, various ligands (Fig. 7). The source says: Peptide sequences representing each class was fused to the DNA binding domain (DBD) of the yeast transcription factor Ga14. HepG2 cells were then transiently transfected with expression vectors for ERα-VP16 and the Gal4-peptide fusion proteins. In addition, a luciferase reporter construct under the control of 5 copies of a Ga14 upstream enhancer element was also transfected along with a pCMV-β galactosidase vector to normalize for transfection efficiency. Transfection of the Ga14 DBD alone is included as control. Cells were then induced with various ligands as indicated in the figure and assayed for luciferase activity and β galactosidase activity. Normalized response was obtained by dividing the luciferase activity by the β galactosidase activity.
(In general: Reporter assays use an easily measured gene product as a stand-in for the process of interest.)

The target of experiment [1] is T2, estrogen receptor α (ERα) (Homo sapiens, UniProt P03372).
T2 construct: The full length estrogen receptor was subcloned in frame into the EcoRI and XhoI sites of pJG4-5; expressed in transfected cells; host or cells: Saccharomyces cerevisiae EGY48
T2 sequence (P03372 1-595): T1 sequence (P03372 1-595)
The experiment in a line: LexA yeast two hybrid, β-galactosidase activity assay (Example 3). The source says: The LexA system that we employ utilizes a bacterial DNA binding protein domain, LexA, and a bacterially derived transcriptional activation sequence, B42. Proteins or peptides of interest are fused in frame with these domains and expressed using episomal plasmids in a yeast cell. The interactions between these proteins/peptides of interest are registered by monitoring the level of the reporter gene product, β-galactosidase, by an enzymatic assay. The differences in the levels of β-galactosidase activities reflect the relative strengths of the protein interactions.
The yeast strains used in this study was EGY48 (MAT a trp1 his3 ura3 leu2::61exAops-LEU2) purchased from OriGeneTechnologies for yeast two hybrid analysis. This strain contains 6 LexA operators upstream of the LEU2 gene in the yeast genome and provides high sensitivity in detecting protein-protein interactions in the LexA two hybrid system. The plasmids used in this study were pEG202 (LexA-DNA binding domain), pJG4-5 (B42-activation domain), and the plasmid containing a β-galactosidase reporter, pJK103 (OriGene Technologies). The full length estrogen receptor was subcloned in frame into the EcoRI and XhoI sites of pJG4-5 to generate an ERα-B42 activation domain fusion. ERα was subcloned in the activation domain plasmid because ERα was able to autoactivate reporters when fused to the LexA DNA binding domain.
The peptide sequences used in this study were generated from synthetic oligos filled in by T7 Sequenase (Life Science) and subcloned into the EcoRI-XhoI sites of pEG202. The synthetic oligos were: [formula] [formula] [formula] [formula] The complementary synthetic oligo used to generate double stranded DNA was 3'XhoPrim, 5'-[…]. Each 5'-oligo was annealed to the 3'-oligo by heating to 90 °C for 15 minutes and cooled slowly to 35 °C. T7 sequenase was added and the fill-in reaction allowed to proceed at 30 °C for 30 minutes. The reaction was terminated by heat denaturing the enzyme at 65 °C for 1 hour, restriction digests were performed and the resulting DNA fragments subcloned into pEG202 to generate peptide-LexA DNA binding domain fusions.
The culture was diluted to ~2x10^6 cells/ml in the same media and allowed to grow at 30 °C until the cultures reached a density of ~1x10^7 cells/ml (∼4 hours). The yeast cells were pelleted by centurifugation, washed with extraction buffer (60 mM Na2HPO4, 40 mMNaH2PO4, 10 mM KCl, 1 mM MgSO4, 1mM PMSF, 7 mM 2-mercaptoethanol) and suspended in 200 µl of extraction buffer. 100 µl of acid-washed glass beads were added and cells were lysed by vigorous agitation for 10 minutes at 4 °C. Cellular debris was pelleted by centrifugation and the supernatant transferred to a clean tube. 10 µg of total cellular protein was diluted into complete Z buffer (60 mM Na2HPO4, 40 mMNaH2PO4 , 10 mM KCl, 1 mM MgSO4, 7 mM 2-mercaptoethanol) to a volume of 100 µl in a 96-well microplate. 80 µg of o-nitrophenyl-β-D-pyranoside (ONPG) in 20 µl was added to each well to initiate color development.
10µg of each protein extract was assayed for β-galactosidase activity using o-nitrophenyl-b-D-pyranoside as substrate. Activity units are defied as 1000* Abs405/minutes/mg/protein.
Values are in beta-galactosidase units (MOD/min/mg)

The target of a further experiment is T3, ERα (Homo sapiens, UniProt P03372).
T3 sequence (P03372 1-595): T1 sequence (P03372 1-595)
The experiment is described as follows: Disruption of ER mediated transcriptional activity, C3-Luc reporter in HepG2 cells (Example 4.4). Particulars: Gal4-peptide fusion; for block of the partial agonist activity of tamoxifen: 4-OH tamoxifen activated ER; for inhibition of the ability of estradiol to activate transcription: estradiol (10 nM) activated ER. The source says:
Then HepG2 cells were transfected as above except that expression vectors for Gal4-peptide fusions were included as indicated in 10B. […] Increasing amounts of input plasmid for each Gal4-peptide fusion is also shown with the resulting transcriptional activity presented as % activation of control.

On to SSLTSRDFGSWYASR [α II], for which the “interaction with ERα (normalized luciferase response)” value with ERα-VP16 is “interacts with the receptor under all conditions with the apo-receptor and ICI 182,780 bound receptor showing the least activity”. In addition, the “Peptide Interactions with ER Alpha, beta-galactosidase units, value” (from here on “Peptide Interactions with ER Alpha”) in experiment [1] (4-hydroxy Tamoxifen) is 20100 MOD/min/mg; in experiment [1] (Estradiol) it was 30983 MOD/min/mg; in experiment [1] (No Addition), 1224 MOD/min/mg; in experiment [1] (Tamoxifen Citrate) it was 8933 MOD/min/mg. The “block of the partial agonist activity of tamoxifen” value (“block … of tamoxifen” for short) with ERα was “efficiently block”. Moreover, in the experiment with ERα, the “inhibition of the ability of estradiol to activate transcription” value is recorded as “up to 50%”.
In the case of SSNHQSSRLIELLSR [α/β I], the “interaction with ERα (normalized luciferase response)” value with ERα-VP16 is “interacts with ER in the presence of estradiol and somewhat with the apo-receptor”. Further, in the experiment with ERα, the “block … of tamoxifen” value is reported as “is not” and the “inhibition of the ability of estradiol to activate transcription” value is on record as “up to 50%”.
With SSPGSREWFKDMLSR [α/β V], in the experiment with ERα-VP16, the “interaction with ERα (normalized luciferase response)” value was “interact almost exclusively with the tamoxifen bound receptor”. Further, the “Peptide Interactions with ER Alpha” value was determined as 4128 MOD/min/mg in experiment [1] (4-hydroxy Tamoxifen), 648 MOD/min/mg in experiment [1] (Estradiol), 548 MOD/min/mg in experiment [1] (No Addition) and 1005 MOD/min/mg in experiment [1] (Tamoxifen Citrate). Also, the “block … of tamoxifen” value with ERα is “efficiently block”. For the same sequence, the “block of estradiol mediated transcription” value in the experiment with ERα is “inability”.
As for SSWDMHQFFWEGVSR [α/β III], the “interaction with ERα (normalized luciferase response)” value with ERα-VP16 was “interact almost exclusively with the tamoxifen bound receptor”. The “Peptide Interactions with ER Alpha” value in experiment [1] (4-hydroxy Tamoxifen) worked out at 3194 MOD/min/mg; in experiment [1] (Estradiol), 605 MOD/min/mg; in experiment [1] (No Addition) it was 381 MOD/min/mg; in experiment [1] (Tamoxifen Citrate), 600 MOD/min/mg. Further, the “block … of tamoxifen” value in the experiment with ERα is given as “efficiently block”. In addition, in the experiment with ERα, the “block of estradiol mediated transcription” value is listed as “inability”.
